Source: patent publication US20220119492A1 (MEDIKINE, published 2022)
Substitutions are numbered along the chain they refer to. Ends that are not written are not given here.

Key:
Assay in all cases: competition ELISA, peptide tracer
[1] = biological target: T1, human IL-2Rβ (CD122 protein, Fc Tag) (27-239) (human, UniProt P14784 27-239)
T1 construct: range 27-239; Bought protein; also called hu-IL-2Rβ subunit; IL-2Rβ subunit; not shown: Fc tag of the bought protein
T1 sequence (looked up): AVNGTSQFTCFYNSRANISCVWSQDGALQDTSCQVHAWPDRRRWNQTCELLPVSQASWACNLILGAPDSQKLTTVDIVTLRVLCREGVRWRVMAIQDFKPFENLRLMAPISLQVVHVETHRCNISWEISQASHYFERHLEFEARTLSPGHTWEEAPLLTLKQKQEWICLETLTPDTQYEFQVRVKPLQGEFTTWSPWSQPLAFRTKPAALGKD
Experimental: (§1) Binding of Fc fusions to IL-2Rβ and IL-2Rγc were measured using a competition binding ELISA with biotinylated peptide/NeutrAvidin-HRP tracer. ELISA plate was prepared as described in Example 27.
(§2) The plate was washed 4 times with PT (1×PBS, 0.05% Tween® 20) buffer. Fifty (50) μL of IL-2R ligands serially diluted in PBT was added to appropriate wells then incubated at 4° C. for 1 hr.
(§3) At the appropriate time, the precomplexed bn-peptide/NA-HRP tracer was diluted to 2-fold its predetermined binding EC80 (typically 30 to 10 nM) without washing. fifty (50) μL of bn-peptide/NA-HRP tracer was added to each well and incubated at 4° C. for 45 mins.

[2] = biological target: T2, cynomolgus monkey IL-2Rβ subunit (cynomolgus monkey)
T2 construct: Bought protein; also called cyno-IL-2Rβ subunit
Experimental: as §1, §2, §3

[3] = biological target: T3, human IL-2Rγc (CD132 protein, Fc Tag) (23-254) (human, UniProt P31785 23-254)
T3 construct: range 23-254; Bought protein; also called hu-IL-2Rγc subunit; IL-2Rγc subunit; not shown: Fc tag of the bought protein
T3 sequence (looked up): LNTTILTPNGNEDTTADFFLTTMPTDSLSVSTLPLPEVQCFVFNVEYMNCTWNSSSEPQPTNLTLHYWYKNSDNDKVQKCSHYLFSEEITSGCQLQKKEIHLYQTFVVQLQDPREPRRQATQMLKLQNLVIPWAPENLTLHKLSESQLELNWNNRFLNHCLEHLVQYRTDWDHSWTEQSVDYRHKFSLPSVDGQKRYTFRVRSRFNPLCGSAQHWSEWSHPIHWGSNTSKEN
Experimental: as §1, §2, §3

[4] = biological target: T4, cynomolgus monkey Rγc subunit (cynomolgus monkey)
T4 construct: also called cyno-IL-2Rγc subunit
Experimental: as §1, §2, §3

Measured: IC50

T2 sequence (Q38J85 whole entry): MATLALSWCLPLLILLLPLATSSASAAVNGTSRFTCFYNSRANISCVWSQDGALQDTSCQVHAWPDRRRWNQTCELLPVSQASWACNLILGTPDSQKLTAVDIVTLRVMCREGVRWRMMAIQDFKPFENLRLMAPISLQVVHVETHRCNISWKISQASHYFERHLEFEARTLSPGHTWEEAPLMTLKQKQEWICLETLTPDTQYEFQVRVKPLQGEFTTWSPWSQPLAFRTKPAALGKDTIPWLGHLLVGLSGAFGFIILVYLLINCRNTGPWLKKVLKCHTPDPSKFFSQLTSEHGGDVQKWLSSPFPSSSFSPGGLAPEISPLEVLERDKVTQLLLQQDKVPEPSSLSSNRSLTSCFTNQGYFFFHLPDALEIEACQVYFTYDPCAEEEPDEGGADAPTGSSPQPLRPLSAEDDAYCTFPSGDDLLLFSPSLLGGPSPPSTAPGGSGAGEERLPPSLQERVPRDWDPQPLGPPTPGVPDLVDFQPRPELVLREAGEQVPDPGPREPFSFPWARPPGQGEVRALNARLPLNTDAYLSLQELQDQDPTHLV

B1: SEQ ID NO 3172 (peptide)
peptide: GGRYVHDCFIAAVGDLCDLFLHGG
< 100 µM: [1] | [2]

B2: SEQ ID NO 3204 (peptide)
peptide: GGRYVHDCFIGQVGDLCALFLHGG
< 100 µM: [1] | [2]

B3: SEQ ID NO 3176 (peptide)
peptide: GGRYVHDCFIAQVGDACDLFLHGG
< 100 µM: [1] | [2]

B4: SEQ ID NO 3186 (peptide)
peptide: GGRYVHDCFIAQVGDLCALFLHGG
< 100 µM: [1] | [2]

B5: SEQ ID NO 3185 (peptide)
peptide: GGRYVHDCFIAQVGDLCDAFLHGG
< 100 µM: [1] | [2]

B6: SEQ ID NO 3202 (peptide)
peptide: GGAYVHDCFIGQVGDLCDLFLHGG
< 100 µM: [1] | [2]

B7: SEQ ID NO 3200 (peptide)
peptide: GGRYVHDCFIGAVGDLCDLFLHGG
< 100 µM: [1] | [2]

B8: SEQ ID NO 3173 (peptide)
peptide: GGRYVHDCFIAQAGDLCDLFLHGG
< 100 µM: [1] | [2]

B9: SEQ ID NO 3182 (peptide)
peptide: GGRYVHDCFIAQVGDLCDLFLAGG
< 100 µM: [1] | [2]

B10: SEQ ID NO 3178 (peptide)
peptide: GGRAVHDCFIAQVGDLCDLFLHGG
< 100 µM: [1] | [2]

B11: SEQ ID NO 3174 (peptide)
peptide: GGRYVHDCFIAQVADLCDLFLHGG
< 100 µM: [1] | [2]

B12: SEQ ID NO 3179 (peptide)
peptide: GGRYAHDCFIAQVGDLCDLFLHGG
< 100 µM: [1] | [2]

B13: SEQ ID NO 3177 (peptide)
peptide: GGAYVHDCFIAQVGDLCDLFLHGG
< 100 µM: [1] | [2]

B14: SEQ ID NO 3180 (peptide)
peptide: GGRYVADCFIAQVGDLCDLFLHGG
< 100 µM: [1] | [2]

B15: SEQ ID NO 3183 (peptide)
peptide: GGRYVHDCFIAQVGDLCDLFAHGG
< 100 µM: [1] | [2]

B16: SEQ ID NO 4180 (peptide)
peptide: VDCFKVKVGELCDLFFGPAPAPAPAPAPAPAPAGVVCQDWEGVELCWQ
< 100 µM: [1] | [3] | [2] | [4]

B17: IL-2Rβγc ligand BGL22 (peptide)
peptide 1: GGRYVHDCFIAQVGALCDLFLHPAPAPAPAPAPAPAPA
peptide 2: VVCQDWEGVELCWQGG
modifications: cysteine pairing not given here; also: two chains joined by non-peptidyl linker L11 (click chemistry)
notes: Made by click chemistry
< 100 µM: [1] | [3] | [2] | [4]

B18: IL-2Rβγc ligand BGL23 (peptide)
peptide 1: B17 peptide 1 with D7A, A15D
peptide 2: VVCQDWEGVELCWQGG
modifications: cysteine pairing not given here; also: two chains joined by non-peptidyl linker L11 (click chemistry)
notes: Made by click chemistry
< 100 µM: [1] | [3] | [2] | [4]

B19: SEQ ID NO 4175 (peptide)
peptide: GGRYVHDCFIAQVGDLCDLFLHGGGGSGGGGSGGGGSGGGGSGGVVCQDWEGVELCWQGG
< 100 µM: [1] | [3] | [2] | [4]

B20: SEQ ID NO 4176 (peptide)
peptide: GGRYVHDCFIAQVGDLCDLFLHPAPAPAPAPAPAPAPAGVVCQDWEGVELCWQGG
< 100 µM: [1] | [3] | [2] | [4]

B21: SEQ ID NO 4185 (peptide)
peptide: B20 peptide with A11G
< 100 µM: [1] | [3] | [2] | [4]

B22: SEQ ID NO 4183 (peptide)
peptide: B20 peptide with V13A
< 100 µM: [1] | [3] | [2] | [4]

B23: SEQ ID NO 4182 (peptide)
peptide: B20 peptide with D18A
< 100 µM: [1] | [3] | [2] | [4]

B24: SEQ ID NO 4184 (peptide)
peptide: B20 peptide with L16A
< 100 µM: [1] | [3] | [2] | [4]

B25: SEQ ID NO 4173 (peptide)
peptide: GGGELLVDCFKVKVGELCDLFFGGGGGSGGGGSGGVVCQDWEGVELCWQGG
< 100 µM: [1] | [3] | [2] | [4]

B26: SEQ ID NO 4174 (peptide)
peptide: GGGELLVDCFKVKVGELCDLFFGGGGGSGGGGSGGGGSGGVVCQDWEGVELCWQGG
< 100 µM: [1] | [3] | [2] | [4]

B27: SEQ ID NO 4177 (peptide)
peptide: GGELLVDCFKVKVGELCDLFFGPAPAPAPAPAPAPAPAPAPAPAVVCQDWEGVELCWQGG
< 100 µM: [1] | [3] | [2] | [4]

B28: SEQ ID NO 4179 (peptide)
peptide: LVDCFKVKVGELCDLFFGPAPAPAPAPAPAPAPAGVVCQDWEGVELCWQ
< 100 µM: [1] | [3] | [2] | [4]

B29: SEQ ID NO 4172 (peptide)
peptide: WYPCWIARVGELCDLEEGPVNRGGGGGSGGVVCQDWEGVELCWQGG
< 100 µM: [1] | [3] | [2] | [4]

B30: SEQ ID NO 4178 (peptide)
peptide: GGELLVDCFKVKVGELCDLFFGPAPAPAPAPAPAPAPAGVVCQDWEGVELCWQGG
< 100 µM: [1] | [3] | [2] | [4]

B31: SEQ ID NO 4181 (peptide)
peptide: B30 peptide with K10R, K12R
< 100 µM: [1] | [3] | [2] | [4]
